Each block holds one binder with its values, some of them ahead of it.
How the values were obtained:
[1] = target: T1, recombinant human CD28/Fc Chimera (R&D Systems, Abingdon, UK) (human, UniProt P10747 19-152); test: BIAcore, CM5 chip coated with 12500 RU of CD28-Fc; dAb at 57.5 uM
T1 construct: Bought reagent; Fc part of the bought chimera not given

[2] = target: T1, recombinant human CD28/Fc Chimera (R&D …); test: BIAcore, CM5 chip coated with 12500 RU of CD28-Fc; dAb at 42.3 uM
[3] = target: T1, recombinant human CD28/Fc Chimera (R&D …); test: BIAcore, CM5 chip coated with 12500 RU of CD28-Fc; dAb concentration not given
[4] = target: T1, recombinant human CD28/Fc Chimera (R&D …); test: BIAcore, CM5 chip coated with 12500 RU of CD28-Fc; dAb at 16.6 uM
[5] = target: T1, recombinant human CD28/Fc Chimera (R&D …); test: BIAcore, CM5 chip coated with 12500 RU of CD28-Fc; dAb at 19.4 uM
[6] = target: T1, recombinant human CD28/Fc Chimera (R&D …); test: BIAcore, CM5 chip coated with 12500 RU of CD28-Fc; dAb at 13.8 uM

B3: DOM21-38 (other)
VH: EVQLLESGGGLVQPGGSLRLSCAASGFTFILYDMQWVRQAPGKGLEWVSRISANGHDTYYADSVKGRFTISRDNSKNTLYLQMNSLRAEDTAVYYCAKGPHYLFDYWGQGTLVTVSS
notes: Human VH antibody single variable domain (dAb), expressed from pDOM5 and purified
binding result [3]: binds

B6: DOM21-18 (other)
VL: DIQMTQSPSSLSASVGDRVTITCRASQYIGTSLNWYQQKPGKAPKLLTYQASLLQSGVPSRFSGSGSGTDFTLTISSLQPEDFATYYCQQLALRPMTFGQGTKVEIKR
notes: Human VK (DPK9/JK1) antibody single variable domain (dAb), expressed from pDOM5 and purified
binding result [6]: binds

B7: DOM21-44 (other)
VH: EVQLLESGGGLVQPGGSLRLSCAASGFTFARYTMVWVRQAPGKGLEWVSAIHFDGRTTYYADSVKGRFTISRDNSKNTLYLQMNSLRAEDTAVYYCAKNEWASLKHFDYWGQGTLVTVSS
notes: as for B3
binding result [3]: binds

The remaining lines, values ahead:

binding result [1]: binds
B1: DOM21-20 (other)
VH: EVQLLESGGGLVQPGGSLRLSCAASGFTFPAYSMIWVRQAPGKGLEWVSTISPLGYSTYYADSVKGRFTISRDNSKNTLYLQMNSLRAEDTAVYYCAEQTAYLNRATEHFDYWGQGTLVTVSS
notes: as for B3

binding result [2]: binds
B2: DOM21-4 (other)
VH: EVQLLESGGGLVQPGGSLRLSCAASGFTFSRYHMAWVRQAPGKGLEWVSVIDSLGLQTYYADSVKGRFTISRDNSKNTLYLQMNSLRAEDTAVYYCAEYGGAFDYWGQGTLVTVSS
notes: Human VH antibody single variable domain (dAb) from a DP47/JH4b library, expressed from pDOM5 and purified

binding result [4]: binds
B4: DOM21-28 (other)
VL: DIQMTQSPSSLSASVGDRVTITCRASQSISHSLVWYQQKPGKAPKLLIYWASLLQSGVPSRFSGSGSGTDFTLTISSLQPEDFATYYCQQGMTTPFTFGQGTKVEIKR
notes: Human VK antibody single variable domain (dAb), expressed from pDOM5 and purified

binding result [5]: binds
B5: DOM21-22 (other)
VH: EVQLLESGGGLVQPGGSLRLSCAASGFTFELYQMGWVRQAPGKGLEWVSTIMPSGNLTYYADSVKGRFTISRDNSKNTLYLQMNSLRAEDTAVYYCAKMWSLNLGFHAAFDYWGQGTLVTVSS
notes: as for B3

— patent publication WO2010007376A2 (dated 2010)
